{
  "source": "patent US20170044259A1",
  "about": "(published 2017)",
  "binders": {"B1": {"name": "PD-1 1.5 PD012 2001 (antibody)", "heavy": "not shown", "light": "QGQSGQGNWLDCQFYSECSVYGGGGSSGGSISSGLLSGRSDNHGGGSDIQLTQSPSSLSASVGDRVTITCRASESVDAYGISFMNWFQQKPGKAPKLLIYAASNQGSGVPSRFSGSGSGTDFTLTISSMQPEDFATYYCQQSKDVPWTFGQGTKLEIKRTVAAPSVFIFPPSDEQLKSGTASVVCLLNNFYPREAKVQWKVDNALQSGNSQESVTEQDSKDSTYSLSSTLTLSKADYEKHKVYACEVTHQGLSSPVTKSFNRGEC"}, "B2": {"name": "PD-1 1.5 PD009 2001 (antibody)", "heavy": "not shown", "light": "QGQSGQGAPRTCYTYQCSSFYTGGGSSGGSISSGLLSGRSDNHGGGSDIQLTQSPSSLSASVGDRVTITCRASESVDAYGISFMNWFQQKPGKAPKLLIYAASNQGSGVPSRFSGSGSGTDFTLTISSMQPEDFATYYCQQSKDVPWTFGQGTKLEIKRTVAAPSVFIFPPSDEQLKSGTASVVCLLNNFYPREAKVQWKVDNALQSGNSQESVTEQDSKDSTYSLSSTLTLSKADYEKHKVYACEVTHQGLSSPVTKSFNRGEC"}, "B3": {"name": "PD-1 1.5 PD006 2001 (antibody)", "heavy": "not shown", "light": "QGQSGQGAPRCYMFASYCKSQYGGGSSGGSISSGLLSGRSDNHGGGSDIQLTQSPSSLSASVGDRVTITCRASESVDAYGISFMNWFQQKPGKAPKLLIYAASNQGSGVPSRFSGSGSGTDFTLTISSMQPEDFATYYCQQSKDVPWTFGQGTKLEIKRTVAAPSVFIFPPSDEQLKSGTASVVCLLNNFYPREAKVQWKVDNALQSGNSQESVTEQDSKDSTYSLSSTLTLSKADYEKHKVYACEVTHQGLSSPVTKSFNRGEC"}, "B4": {"name": "A1.5 (antibody)", "heavy": "not shown", "light": "DIQLTQSPSSLSASVGDRVTITCRASESVDAYGISFMNWFQQKPGKAPKLLIYAASNQGSGVPSRFSGSGSGTDFTLTISSMQPEDFATYYCQQSKDVPWTFGQGTKLEIKRTVAAPSVFIFPPSDEQLKSGTASVVCLLNNFYPREAKVQWKVDNALQSGNSQESVTEQDSKDSTYSLSSTLTLSKADYEKHKVYACEVTHQGLSSPVTKSFNRGEC"}, "B5": {"name": "PD-1 1.5 PD017 2001 (antibody)", "heavy": "not shown", "light": "QGQSGQGTTCNLYQQSSMFCNAGGGSSGGSISSGLLSGRSDNHGGGSDIQLTQSPSSLSASVGDRVTITCRASESVDAYGISFMNWFQQKPGKAPKLLIYAASNQGSGVPSRFSGSGSGTDFTLTISSMQPEDFATYYCQQSKDVPWTFGQGTKLEIKRTVAAPSVFIFPPSDEQLKSGTASVVCLLNNFYPREAKVQWKVDNALQSGNSQESVTEQDSKDSTYSLSSTLTLSKADYEKHKVYACEVTHQGLSSPVTKSFNRGEC"}, "B6": {"name": "A1.5 PD34 2001 (antibody)", "heavy": "not shown", "light": "QGQSGQGTSYCSIEHYPCNTHHGGGSSGGSISSGLLSGRSDNHGGGSDIQLTQSPSSLSASVGDRVTITCRASESVDAYGISFMNWFQQKPGKAPKLLIYAASNQGSGVPSRFSGSGSGTDFTLTISSMQPEDFATYYCQQSKDVPWTFGQGTKLEIKRTVAAPSVFIFPPSDEQLKSGTASVVCLLNNFYPREAKVQWKVDNALQSGNSQESVTEQDSKDSTYSLSSTLTLSKADYEKHKVYACEVTHQGLSSPVTKSFNRGEC"}, "B7": {"name": "J43v2 mIgG2a (antibody, V domains shown)", "VH": "EVRLLESGGGLVKPEGSLKLSCVASGFTFSDYFMSWVRQAPGKGLEWVAHIYTKSYNYATYYSGSVKGRFTISRDDSRSMVYLQMNNLRTEDTATYYCTRDGSGYPSLDFWGQGTQVTVSS", "VL": "YELTQPPSASVNVGETVKITCSGDQLPKYFADWFHQRSDQTILQVIYDDNKRPSGIPERISGSSSGTTATLTIRDVRAEDEGDYYCFSGYVDSDSKLYVFGSGTQLTVLG"}, "B8": {"name": "C1.1 (antibody, V domains shown)", "VH": "EVQLVESGGGLVQPGGSLRLSCAASGFTFSNYAMSWVRQAPGKGLEWVAYISNGGGDTHYADSLKGRFTVSRDNSKNTLYLQMNSLRAEDTAVYYCARENYGTSPFVYWGQGTLVTVSS", "VL": "DIQLTQSPSSLSVSVGDRATITCRASESVDNYGISFMNWFQQKPGKAPKLLIYAASNQGSGVPSRFSGSGSGTDFTLTISSMQPEDFATYYCQQSKDVPWTFGQGTKLEIKR"}, "B9": {"name": "A1.2 (antibody, V domains shown)", "VH": "B8 VH with N31G, G54S, D57N, T58A, L64V, V70I, A97T, N100D", "VL": "B8 VL with V13A, A19V, N31Q"}, "B10": {"name": "A1.4 (antibody, V domains shown)", "VH": "B8 VH with N31G, G54S, D57N, T58A, L64V, V70I, A97T, N100D", "VL": "B8 VL with V13A, A19V, N31S"}, "B11": {"name": "A1.0 (antibody, V domains shown)", "VH": "B8 VH with N31G, G54S, D57N, T58A, L64V, V70I, A97T, N100D", "VL": "B8 VL with V13A, A19V"}},
  "key": {"[1]": {"molecular_target": "T1, human PD-1-Fc (R and D systems, Minneapolis, Minn.) (human, UniProt Q15116 25-167)", "T1 sequence (Q15116 25-167)": "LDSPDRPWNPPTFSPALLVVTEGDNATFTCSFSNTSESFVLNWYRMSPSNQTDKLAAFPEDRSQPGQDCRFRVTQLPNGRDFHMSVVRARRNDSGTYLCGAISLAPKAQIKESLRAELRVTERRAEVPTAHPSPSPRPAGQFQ", "assay": "ELISA; upper right panel"}, "[2]": {"molecular_target": "T1, human PD-1-Fc (R and D systems, …)", "assay": "ELISA; upper left panel"}, "[3]": {"molecular_target": "human PD-1-His (R & D systems, Minneapolis, Minn.) (human, UniProt Q15116 25-167)", "sequence (Q15116 25-167)": "as above", "assay": "BLI"}, "[4]": {"molecular_target": "T1, human PD-1-Fc (R and D systems, …)", "assay": "inhibition ELISA; hPDL-1 Fc blockade"}, "[5]": {"molecular_target": "T1, human PD-1-Fc (R and D systems, …)", "assay": "inhibition ELISA; hPDL-1 Fc blockade", "remark": "listed apart in the source"}, "[6]": {"molecular_target": "T1, human PD-1-Fc (R and D systems, …)", "assay": "inhibition ELISA; hPDL-2 Fc blockade"}, "[7]": {"molecular_target": "T1, human PD-1-Fc (R and D systems, …)", "assay": "ELISA; lower left panel"}, "[8]": {"molecular_target": "T1, human PD-1-Fc (R and D systems, …)", "assay": "ELISA; lower right panel"}, "[9]": {"molecular_target": "T2, mouse PD-1 expressed on HEK293 cells (mouse, UniProt Q02242 25-288)", "T2 chain": "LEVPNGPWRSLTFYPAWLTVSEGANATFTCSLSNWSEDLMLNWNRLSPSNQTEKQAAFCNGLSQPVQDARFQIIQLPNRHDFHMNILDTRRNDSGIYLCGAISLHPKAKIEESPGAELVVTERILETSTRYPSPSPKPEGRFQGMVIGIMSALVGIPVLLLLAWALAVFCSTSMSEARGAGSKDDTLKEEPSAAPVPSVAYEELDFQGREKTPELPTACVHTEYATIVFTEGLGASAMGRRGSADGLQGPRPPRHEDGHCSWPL", "assay": "flow cytometry cell binding"}, "[10]": {"molecular_target": "T2, mouse PD-1 expressed on HEK293 cells", "assay": "flow cytometry blocking; blocking of biotin-mPD-L2"}, "[11]": {"molecular_target": "T2, mouse PD-1 expressed on HEK293 cells", "assay": "flow cytometry blocking; blocking of biotin-mPD-L1"}, "[12]": {"molecular_target": "T1, human PD-1-Fc (R and D systems, …)", "assay": "inhibition ELISA; hPDL-2 Fc blockade", "remark": "listed apart in the source"}, "[13]": {"molecular_target": "T1, human PD-1-Fc (R and D systems, …)", "assay": "inhibition ELISA; hPDL-1 Fc blockade", "remark": "listed apart in the source"}, "[14]": {"molecular_target": "T1, human PD-1-Fc (R and D systems, …)", "assay": "inhibition ELISA; hPDL-2 Fc blockade", "remark": "listed apart in the source"}},
  "note": "Substitutions are numbered along the chain they refer to.",
  "data": [
    {"binder": "B1", "values": [
      {"measurement": "Kd", "setting": "[1]", "result": 1.74, "unit": "nM"}
    ]},
    {"binder": "B2", "values": [
      {"measurement": "Kd", "setting": "[2]", "result": 0.399, "unit": "nM"}
    ]},
    {"binder": "B3", "values": [
      {"measurement": "Kd", "setting": "[2]", "result": 5.66, "unit": "nM"}
    ]},
    {"binder": "B4", "values": [
      {"measurement": "Kd", "setting": "[3]", "result": 1.48, "unit": "nM"},
      {"measurement": "IC50", "setting": "[4]", "result": 1.4, "unit": "nM"},
      {"measurement": "IC50", "setting": "[5]", "result": 4.25, "unit": "nM"},
      {"measurement": "IC50", "setting": "[6]", "result": 2.94, "unit": "nM"},
      {"measurement": "Kd", "setting": "[7]", "result": 0.16, "unit": "nM"},
      {"measurement": "Kd", "setting": "[1]", "result": 0.18, "unit": "nM"},
      {"measurement": "Kd", "setting": "[2]", "result": 0.162, "unit": "nM"},
      {"measurement": "Kd", "setting": "[8]", "result": 0.176, "unit": "nM"}
    ]},
    {"binder": "B5", "values": [
      {"measurement": "Kd", "setting": "[1]", "result": 4.36, "unit": "nM"}
    ]},
    {"binder": "B6", "values": [
      {"measurement": "Kd", "setting": "[7]", "result": 8.4, "unit": "nM"},
      {"measurement": "Kd", "setting": "[1]", "result": 7.3, "unit": "nM"},
      {"measurement": "Kd", "setting": "[2]", "result": 9.37, "unit": "nM"},
      {"measurement": "Kd", "setting": "[8]", "result": 8.12, "unit": "nM"}
    ]},
    {"binder": "B7", "values": [
      {"measurement": "EC50", "setting": "[9]", "result": 4.31, "unit": "nM"},
      {"measurement": "EC50", "setting": "[10]", "result": 5.9, "unit": "nM"},
      {"measurement": "EC50", "setting": "[11]", "result": 6.06, "unit": "nM"}
    ]},
    {"binder": "B8", "values": [
      {"measurement": "Kd", "setting": "[3]", "result": 12.4, "unit": "nM"},
      {"measurement": "IC50", "setting": "[12]", "result": 1.2, "unit": "nM"},
      {"measurement": "IC50", "setting": "[4]", "result": 1.32, "unit": "nM"},
      {"measurement": "IC50", "setting": "[5]", "result": 3.73, "unit": "nM"},
      {"measurement": "IC50", "setting": "[6]", "result": 3.07, "unit": "nM"}
    ]},
    {"binder": "B9", "values": [
      {"measurement": "IC50", "setting": "[13]", "result": 1.55, "unit": "nM"},
      {"measurement": "IC50", "setting": "[14]", "result": 1.01, "unit": "nM"}
    ]},
    {"binder": "B10", "values": [
      {"measurement": "IC50", "setting": "[13]", "result": 1.92, "unit": "nM"},
      {"measurement": "IC50", "setting": "[14]", "result": 1.29, "unit": "nM"}
    ]},
    {"binder": "B11", "values": [
      {"measurement": "IC50", "setting": "[13]", "result": 1.85, "unit": "nM"},
      {"measurement": "IC50", "setting": "[14]", "result": 1.04, "unit": "nM"}
    ]}
  ]
}
